Assay [1] deals with Sindbis virus strain TR339 (virions; also structural proteins on infected Vero cells) (Sindbis virus).
For assay [2] the target is unchanged. Nature of the assay: cell-based or functional assay.
Assay [3] addresses Mayaro virus (MAYV) structural proteins on infected cells (Mayaro virus). As to the kind of experiment: flow cytometry, surface staining of MAYV-infected Vero cells with serial dilutions, % binding to infected cells. On the technique in general: In flow cytometry, cells or beads pass a laser one at a time.

In assay [1], “Du-D1-Mo-D2 MXRA8-Fc (chimeric duck D1 - mouse D2 MXRA8, duck stalk) (from UniProt Q9DBV4 23-65; Q9DBV4 195-293) (Fc fusion)” returned a neutralisation of SINV-GFP infection; IC50 (read off the curve) of 0.3 µg/mL. In assay [2], this substance had a neutralization of SINV TR339 infection, EC50 against that of duck MXRA8-Fc of 3 fold. Besides, the EC50 (read off the curve) in assay [3] is 0.04 µg/mL.

As usually defined, the EC50 (read off the curve) is the concentration needed to bring the measured effect to its halfway point.

The record behind these values is patent publication US20240124553A1.
